Laboratory results reported in patent US20230295310A1 (ABCELLERA BIOLOGICS, published 2023).

These binders were tested against T1, human CD3e/d (human, UniProt P07766 23-126; P04234 22-105) (assay: SPR (Carterra LSA), mAb on chip).
T1 construct: Bought soluble protein; also called hCD3e/d; human CD3/ed (Sino CT038-H2508H)
Method: (§1) High-throughput surface plasmon resonance (SPR) coupled kinetic experiments were performed on a Carterra LSA® instrument equipped with an HC-30M chip type (Carterra, USA). The instrument uses two microfluidic modules, a single-flow cell (SFC) and a 96 printhead, to deliver samples to the chip surface via back-and-forth cycling of a fixed sample volume. An up to 384-ligand array is generated by docking the MFC onto each of the four nested print block locations in a serial manner.
(§2) The purified mAbs were immobilized on a Carterra LSA® HC-30M chip by direct coupling. The chip surface was first activated by flowing a freshly prepared 1:1:1 activation mix of 100 mM MES pH 5.5, 100 mM S-NHS, 400 mM EDC for 7 min. mAbs diluted to 10 μg/mL in 10 mM NaOAc pH 4.25+0.01% TWEEN®20 were then injected and printed onto the chip surface simultaneously using the MFC printhead for 10 min. Finally, the chip surface was quenched by flowing 1 M ethanolamine for 7 min (to block the excess reactive esters), followed by 2 wash steps of 15 s each in 25 mM MES pH 5.5. In addition to expressed and purified mAbs, relevant benchmarks and negative control mAbs were also printed on the chip surface.
(§3) The data were analyzed using the Carterra Kinetics analysis software. Briefly, the data were referenced with the interstitial reference spots and double-referenced to a buffer cycle, and then fit globally to a 1:1 Langmuir binding model to determine their apparent association (ka) and dissociation (kd) kinetic rate constants and binding affinity constants (KD).

T1 sequence (P07766 23-126, chain 1 of 2): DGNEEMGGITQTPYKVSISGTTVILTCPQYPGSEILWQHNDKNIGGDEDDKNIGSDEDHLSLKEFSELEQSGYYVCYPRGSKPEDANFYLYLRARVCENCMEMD
T1 sequence (P04234 22-105, chain 2 of 2): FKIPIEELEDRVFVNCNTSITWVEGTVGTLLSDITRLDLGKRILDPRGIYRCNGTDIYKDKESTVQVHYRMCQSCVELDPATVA

Binder | Kd [nM]
mAb 109 (antibody, V domains shown, VH and VL only) VH: QVQLVESGGGVVQPGRSLRLSCVASGFPFRSYGMHWVRQAPGKGLEWVAFIWYDGSNKYYADSVRGRFTISRDNFKKMVYLQMNSLRAEDTAVYYCARDLAGIYAFDVWGQGTVVTVSS VL: EIVMTQSPATLSVSPGERATLSCRASQSVSSNLAWYQQKPGQAPRLLIYGASTRATGIPARFSGSGSGTEFTLTVSSLQSEDFAIYYCQQYNNWRPLTFGGGTKVEIK | 21.7
mAb 119 (antibody, V domains shown, VH and VL only) VH: EVQLVESGGGLVQPGRSLRLSCAASGFTFDDYTMHWVRQAPGKGLEWVSGISWNSGSIGYADSVKGRFTISRDNAKNSLYLQMNSLRAEDTALYYCSKDSSGYGYYLNYSLDVWGKGTTVTVSS VL: EIVMTQSPATLSVSPGERATLSCRASQSVSNLAWYQQKPGQAPRLLIYGASTRATGIPARFSGSGSGTEFTLTISSLQSEDFAVYYCQQYNNWPHFGQGTRLQIK | 37.2
mAb 77 (antibody, V domains shown, VH and VL only) VH: EVQLVESGGGLVQPGGSLRLSCAASGFTFSNYWMSWVRQAPGKGLEWVANIKQDGSEKYYVDSVRGRFTISRDNAKKSLYLQMNSLRAEDTAVYYCARDNSNYAYWYFDIWGRGTLVTVSS VL: DIQMTQSPSTLSVSVGDRVTITCRASQSIRKWLAWYQQKPGKAPKLLIFKASSLESGVPSRFSGSGSGTEFTLTISSLQPDDFATYYCQQYDTYSRTFGQGTKVEIK | 286
mAb 286 (antibody, V domains shown, VH and VL only) VH: EVKLVESGGGVVRPGGSLRLSCAASGFTFDDYGMSWVRQAPGKGLEWVSGISWNGGSTGYADSVKGRFTISRDNAKNSLYLQMNSLRAEDTALYHCARDGVPVVKRRYYYYYMDVWGKGTTVTVSS VL: EIVLTQSPDFQSVTPKEKVTITCRASQSIGSSLHWYQQKPDQSPKLLIKYASQSFSGVPSRFSGRGSGTDFTLTINSLEAEDAATYYCHQSGSLPQTFGQGTKVEIK | 580

Now from value to binder:

Kd [nM] | Binder
450 | mAb 284 (antibody, V domains shown, VH and VL only) VH: EVQLLESGGGLVQPGGSLRLSCAASGFTFSSYAMSWVRQAPGKGLEWVSAISGSSGRTYYTDSVKGRFTISRDNSKNTLSLQMNSLRAEDTAVYYCAKKYSYYYYYMDVWGKGTTVTVSS VL: SYELTQPLSVSVALGQTAKITCGGNNIGSKNVHWYQQKPGQAPVLVIYRDSNRPSGIPERFSGSNSGNTATLTISRAQAGDEADYYCQVWDSSTAVFGGGTQLTAL
250 | mAb 306 (antibody, V domains shown, VH and VL only) VH: EVQLLESGGGLVQPGGSLRLSCAASGFTFNSYAMSWVRQAPGRGLEWVSAISGRKSTTYYADSVKGRFTISRDNSKNTLYLQMNSLRAEDTAVYYCAKLWNYYYYYMDVWGKGTTVTVSS VL: SYELTQPLSVSVALGQTARITCGGNNIGSKDVHWYQQKPGQAPVLVIYRDSNRPSGIPERFSGSNSGNTATLTISRAQAGDEADYYCQVWDSSTAVFGGGTQLTAL
84 | mAb 318 (antibody, V domains shown, VH and VL only) VH: EGQLLESGGGLVQPGGSLRLSCAASGFTFSRYAMSWIRQAPGKGLEWVSVIDGSGGDKNYADSVKGRFTISRDNSKNSLYLLMNGLRVEDTAIYFCAKKFSYYYYYMDVWGKGTSVTVSS VL: SYELTQPLSVSVALGQTARITCGGNNIGGKDVHWYQQKPGQAPVLVIYRDSNRPSGIPERFSGSNSGNTATLTISRAQAGDEADYYCQVWDSRTAVFGGGTQLTAL
110 | mAb 301 (antibody, V domains shown, VH and VL only) VH: EVQLLESGGGLVQPGGSRRLSCAASGFTFSSYAMSWVRQAPGKGLEWVSVISGRGDNTNYADSVKGRFTISRENSKNMLYLQMNSLRAEDTAVYYCAKKYSYYYYYMDVWGKGTTVTVSS VL: SYELTQPLSVSVALGQTARITCGGNNIGSKDVHWYQQKPGQAPVLVIYRDSNRPSGIPERFSGSNSGNTATLTISRAQAGDEADYYCQVWDSRTAVFGGGTQLTAL
120 | mAb 304 (antibody, V domains shown, VH and VL only) VH: EVQLLESGGGLVQPGGSRRLSCAASGFTFSSYAMSWVRQAPGKGLEWVSVISGRGDNTNYADSVKGRFTISRENSKNILYLQMNSLRAEDTAVYYCAKKYSYYYYYMDVWGKGTTVTVSS VL: SYELTQPLSVSVALGQTARITCGGNNIGSKDVHWYQQKPGQAPVLVIYRDSNRPSGIPERFSGSNSGNTATLTISRAQAGDEADYYCQVWDSRTAVFGGGTQLTAL
150 | mAb 285 (antibody, V domains shown, VH and VL only) VH: EVQLLESGGGLGQPGGSLRLSCAASGFTFSNYAMSWVRQAPGKGLEWVSVISGSGGDKNYADSVKGRFTISRDNSKNTLYLQMNSLRAEDTAVYYCAKKYSYYYYYMDVWGKGTTVTVSS VL: SYELTQPLSVSVALGQTARITCGGNNIGSKDVHWYQQKPGQAPVLVIYRDSNRPSGIPERFSGSNSGNTATLTISSAQAGDEADYYCQVWDSRTAVFGGGTQLTAL
70 | mAb 316 (antibody, V domains shown, VH and VL only) VH: EVQLLESGGGLVQPGGSRRLSCAASGFTFRTYAMSWVRQAPGKGLEWVSVINGRGDDTNYADSVKGRFTISRDNSKNILFLQMNSLRAEDTAVYYCAKKYSYYYYYMDVWGKGTTVTVSS VL: SYELTQPLSVSVALGQTARITCGGNNIGSKDVHWYQQKPGQAPVLVIYRDSNRPSGIPERFSGSNSGNTATLTISRAQAGDEADYYCQVWDSRTAVFGGGTQLTAL
24 | mAb 258 (antibody, V domains shown, VH and VL only) VH: EVQLLESGGGLVQPGGSLRLSCAASGFTFSNYAMNWVRQAPGKGLEWVSVISNSGGTRLYVDSVKGRFTISRDNSKNTLYLQMSSLRAADTAVYYCAKDAAAALYYYYFYYMDVWGKGTTVTVSS VL: EIVLTQSPDFQSVTPKEKVTITCRASQSIGSSLHWYQQKPDQSPKLLIKYASQSFSGVPSRFSGSGSGTDFTLTINSLEAEDAATYYCHQSSSLPYTFGQGTKLEIK
3200 | mAb 290 (antibody, V domains shown, VH and VL only) VH: EVQLVESGGGVVRPGGSLRLSCAASGFTFDDYGMSWVRQAPGKGLEWVSGISWNGGSTGYADSVKGRFTISRDNAKNSLYLQMNSLRAEDTALYHCARDGVPVVKRRYYYYYMDVWGKGTTVTVSS VL: EIVLTQSPDFQSVTPKEKITITCRASQSIGSSLHWYQQKPDQSPKLLIKYASQSFSGVPSRFSGSGSGTDFTLTINSLEAEDAATYYCHQSASLPQTFGQGTKVEIK

These binders were tested against T2, human CD3e/g (human, UniProt P07766 23-126; P09693 23-116) (assay: SPR (Carterra LSA), mAb on chip).
T2 construct: Bought soluble protein; also called hCD3e/g; human CD3e/g (Acro CDD-C52W4)
T2 sequence (P07766 23-126, chain 1 of 2): as the sequence (P07766 23-126, chain 1 of 2) above
T2 sequence (P09693 23-116, chain 2 of 2): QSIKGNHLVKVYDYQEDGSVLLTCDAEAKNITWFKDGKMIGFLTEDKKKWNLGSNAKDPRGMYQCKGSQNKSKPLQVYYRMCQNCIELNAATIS
Method: as §1, §2, §3

Kd [nM] | Binder
19.4 | mAb 42 (antibody, V domains shown, VH and VL only) VH: QAQLVQSGSELKKPGASVKVSCKASGYTFTKHSMNWVRQAPGQGLEWMGWINTNTGNPTYAQGFTGRFVFSLDTSVTTAYLQISSLKAEDTAVYYCAREGDYDFWSGFFNFDYWGQGTLVTVSS VL: DIQMTQSPSSLSASVGDRVTITCRASQGIRNDLGWYQQKPGKAPKRLIYAASSLQSGVPSRFSGSGSGAEFTLTISSLQPEDFATYYCLQHNSYPRTFGQGTKVEIK
258 | mAb 53 (antibody, V domains shown, VH and VL only) VH: QVQLVQSGAEVKKPGASVKVSCKASGYTFTSYDINWVRQATGQGLEWMGWMNPKSGKTGYAQKFQGRITMTRNTPISTVYMDLSSLRSEDTAVYYCAREGHYDFWTGYYSFDYWGQGTLVTVSS VL: DIQMTQSPSSLSASVGDRVTITCRASQGIRNDLGWYQQTPGKAPKRLIYAASSLQSGVPSRFSGSGSGTEFTLTISSLQPEDFATYYCLQHYSYPYTFGQGTKLEIK
20.1 | mAb 47 (antibody, V domains shown, VH and VL only) VH: QAQLVQSGSELKKPGASVKVSCKASGYTFTKHSMNWVRQAPGQGLEWMGWINTNTGNPTYAQGFTGRFVFSLDTSVTTAYLQISSLKAEDTAVYYCAREGDYDFWSGFFNFDYWGQGTLVTVSS VL: DIQMTQSPSSLSASVGDRVTITCRASQGIRNDLGWYQQKPGKAPKRLIYAASSLQSGVPSRFSGSGSGTEFTLTISSLQPEDFATYYCLQHNSYPRTFGQGTKVEIK
19.1 | mAb 44 (antibody, V domains shown, VH and VL only) VH: QAQLVQSGSELKKPGASVKVSCKASGYTFTRHAMNWVRQAPGQGLEWMGWINTNTGNPTYAQGFTGRFVFSLDTSVSTAYLKISSLKAEDTAVYYCVREGDYDFWSGFFNFDYWGQGTLVTVSS VL: DIQMTQSPSSLSASVGDRVTITCRASQGIRNDLGWFQQKPGKAPTRLIYAASSLQSGVPSRFSGSGSGAEFTLTISSLQPEDFATYYCLQHNSYPRTFGQGTKVEIK
21.7 | mAb 43 (antibody, V domains shown, VH and VL only) VH: QAQLVQSGSELKKPGASVKVSCKASGYTFTKHSMNWVRQAPGQGLEWMGWINTNTGNPMYAQGFTGRFVFSLDTSVTTAYLQISSLKAEDTAVYYCAREGDYDFWSGFFNFDYWGQGTLVTVSS VL: DIQMTQSPSSLSASVGDRVTITCRASQGIRNDLGWYQQKPGKAPKRLIYAASSLQSGVPSRFSGSGSGAEFTLTISSLQPEDFATYYCLQHNSYPRTFGQGTKVEIK
34.3 | mAb 50 (antibody, V domains shown, VH and VL only) VH: QAQLVQSGSELKKPGASVKVSCKASGYTFTRHAMNWVRQAPGQGLEWMGWINTNTGNPTYAQGFTGRFVFSLDTSVTTAYLQISSLKAEDTAVYYCAREGDYDFWSGFFNFDYWGQGTLVTVSS VL: DIQMTQSPSSLSASVGDRVTITCRASQGIRNDLGWFQQKPGKAPTRLIYAASSLQSGVPSRFSGSGSGAEFTLTISSLQPEDFATYYCLQHNSYPRTFGQGTKVEIK
